Data from patent publication US10487318.
Changes are numbered by the printed parent chain. Names may count otherwise.

B1: Kumamolysin-As N291D, Q361D (protein)
chain: MSDMEKPWKEGEEARAVLQGHARAQAPQAVDKGPVAGDERMAVTVVLRRQRAGELAAHVERQAAIAPHAREHLKREAFAASHGASLDDFAELRRFADAHGLALDRANVAAGTAVLSGPVDAINRAFGVELRHFDHPDGSYRSYLGEVTVPASIAPMIEAVLGLDTRPVARPHFRMQRRAEGGFEARSQAAAPTAYTPLDVAQAYQFPEGLDGQGQCIAIIELGGGYDEASLAQYFASLGVPAPQVVSVSVDGASNQPTGDPSGPDGEVELDIEVAGALAPGAKFAVYFAPDTDAGFLDAITTAIHDPTLKPSVVSISWGGPEDSWTSAAIAAMNRAFLDAAALGVTVLAAAGDSGSTDGEDDGLYHVDFPAASPYVLACGGTRLVASGGRIAQETVWNDGPDGGATGGGVSRIFPLPAWQEHANVPPSANPGASSGRGVPDLAGNADPATGYEVVIDGEATVIGGTSAVAPLFAALVARINQKLGKAVGYLNPTLYQLPADVFHDITEGNNDIANRAQIYQAGPGWDPCTGLGSPIGVRLLQALLPSASQPQPGSTENLYFQSGALEHHHHHH
B2: Kumamolysin-As N291D, D358N (protein)
chain: B1 chain with D358N, D361Q
B3: Kumamolysin-As N291D, Q361D, D358G (protein)
chain: B1 chain with D358G
B4: Kumamolysin-As D293T, N291D, G319S, D358G, D368H (protein)
chain: B1 chain with D293T, G319S, D358G, D361Q, D368H
B5: Kumamolysin-As S262G, T292S, N291D, G319S, D358G, D368H (protein)
chain: B1 chain with S262G, T292S, G319S, D358G, D361Q, D368H
B6: Kumamolysin-As N291D, G319S, S354N, D358G, D368H (protein)
chain: B1 chain with G319S, S354N, D358G, D361Q, D368H
B7: Kumamolysin-As N291D (protein)
chain: B1 chain with D361Q
B8: Kumamolysin-As T292S, N291D, G319S, D358G, D368H (protein)
chain: B1 chain with T292S, G319S, D358G, D361Q, D368H
B9: Kumamolysin-As S354N, D358G, D368H (protein)
chain: B1 chain with D291N, S354N, D358G, D361Q, D368H
B10: Kumamolysin-As N291D, D293A, G319S, S354N, D358G, Q361D, D368H (protein)
chain: B1 chain with D293A, G319S, S354N, D358G, D368H
B11: Kumamolysin-As N291D, D293A, D358G, Q361D (protein)
chain: B1 chain with D293A, D358G
B12: Kumamolysin-As N291D, D293A, Q361D, D358N (protein)
chain: B1 chain with D293A, D358N
B13: Kumamolysin-As N291D, D293A (protein)
chain: B1 chain with D293A, D361Q
B14: Kumamolysin-As N291D, G319S, S354N, D358G, Q361D, D368H (protein)
chain: B1 chain with G319S, S354N, D358G, D368H
B15: Kumamolysin-As N291D, D293A, G319S, D358G, Q361D, D368H (protein)
chain: B1 chain with D293A, G319S, D358G, D368H
B16: Kumamolysin-As N291D, G319S, D358G, Q361D, D368H (protein)
chain: B1 chain with G319S, D358G, D368H
B17: Kumamolysin-As N291D, D293A, D358N (protein)
chain: B1 chain with D293A, D358N, D361Q

Molecular target: T1, fluorescently quenched α-gliadin hexapeptide analogue QXL520-PQPQLP-K(5-FAM)-NH2
T1 chain: PQPQLP

Going from B1 to B2, the Fold Change in Activity of PQ Hydrolysis Relative to Wild Type Kumamolysin-As rises from 7.5 fold to 18.9 fold.

Compared with B3, B4 is higher in Fold Change in Activity of PQ Hydrolysis Relative to Wild Type Kumamolysin-As: 20 fold for the first, 58 fold for the second.

Compared with B5, B6 is higher in Fold Change in Activity of PQ Hydrolysis Relative to Wild Type Kumamolysin-As: 29 fold for the first, 54.6 fold for the second.

Compared with B7, B8 is higher in Fold Change in Activity of PQ Hydrolysis Relative to Wild Type Kumamolysin-As: 10 fold for the first, 49 fold for the second.

Going from B9 to B10, the Fold Change in Activity of PQ Hydrolysis Relative to Wild Type Kumamolysin-As rises from 9 fold to 58 fold.

First: B11
Second: B12
The Fold Change in Activity of PQ Hydrolysis Relative to Wild Type Kumamolysin-As of the first is higher: 15 fold for the first, 14.8 fold for the second.

First: B13
Second: B14
The Fold Change in Activity of PQ Hydrolysis Relative to Wild Type Kumamolysin-As of the first is lower: 15 fold for the first, 50 fold for the second.

Compared with B15, B16 is lower in Fold Change in Activity of PQ Hydrolysis Relative to Wild Type Kumamolysin-As: 40.9 fold for the first, 23.1 fold for the second.

B17 gave a Fold Change in Activity of PQ Hydrolysis Relative to Wild Type Kumamolysin-As of 24 fold.
